Measured values from US20210301011A1, “COMPOSITION FOR PROPHYLAXIS OR TREATMENT OF IL-8 RELATED DISEASES” (CHUGAI SEIYAKU KABUSHIKI KAISHA, priority 2016, published 2021).

Tested on: post-surgical adhesion
Assay: Post-surgical adhesion-induced monkey model
Type: in vivo, cynomolgus monkeys
Parameters: key: ∘: Adhesion found; x: No adhesion
Settings: 10 mg/kg i.v. one hour or less after surgery; laparoscopy 24 to 35 days after; per animal
Procedure: To prepare a post-surgical adhesion-induced model, female cynomolgus monkeys 9 to 16 years of age (provided by the Tsukuba Primate Research Center at the National Institutes of Biomedical Innovation, Health and Nutrition) were treated under anesthesia as follows. Anesthesia was performed using balanced anesthesia of ketamine/xylazine (mixed at an adequate ratio of about 2:1) and isoflurane. An incision of 5 to 6 cm was made in the median line of the abdominal wall. After opening the abdomen, a 1-cm incision was made on the uterine corpus and sutured with 4 stitches using a single suture. Then, the whole uterus was brushed five times with gauze. Next, a 1-cm incision was made to the right abdominal wall peritoneal part at 2 cm from the incised median line of the abdominal wall and sutured by running suture with 4 stitches using an absorbable suture. After suture, the sutured part was brushed five times with gauze. Likewise, the peritoneum of left abdominal wall was incised, sutured, and brushed with gauze. Finally, the median line of abdominal wall was sutured by running suture with 10 to 11 stitches. The entire steps were completed in one hour or less. The antagonist Antisedan (in roughly the same amount as that of xylazine) and the antibiotic cephradine were administered at the time of awakening after surgery. Then, the pain reliever Zalban was administered for two days after surgery, and the monkeys were observed regularly every day to confirm the absence of post-surgical abnormalities. At laparoscopic observation, anesthesia and post-surgical monitoring were also performed in the same way.
The control group was untreated. 24 to 35 days after administration of the anti-IL-8 antibody, laparoscopy was performed to observe the adhesion formed due to incision, suture, and blushing with gauze. The abdomen was incised in the median line under anesthesia, and laparoscopic observation was performed by inserting a trocar and then introducing a laparoscope. The laparoscope was connected to a video system (KARL STORZ) and a monitor. The video system was used for recording, and the monitor was used for intraperitoneal observation. The size of the adhesion was measured using a graduated bar or graduated forceps. The presence, range, and location of adhesion were assessed during laparoscopic observation. […] Although adhesion was found in individual No. 206 in the anti-IL-8 antibody administration group, no adhesion was found in the right and left abdominal wall peritoneum or at the uterine incision site in individual No. 201. […] Those skilled in the art will naturally appreciate that anti-IL-8 antibodies may exert a stronger adhesion formation-preventive effect by appropriately altering the timing of administration or such. […]

B1: H1009/L395-F1974m: H1009-F1974m (SEQ ID NO:36) heavy chain, L395-kOMT light chain; the anti-IL-8 antibody of Table 29 (antibody)
heavy: QVQLVESGGGLVQPGGSLRLSCAASGFTFSDYYLSWVRQAPGKGLEWVGLIRNKDNYHTPEYSASVKGRFTISRDDSKNSLYLTMSDLKTEDTAVYYCARENHRYDVELAYWGQGTLVTVSSASTKGPSVFPLAPSSKSTSGGTAALGCLVKDYFPEPVTVSWNSGALTSGVHTFPAVLQSSGLYSLSSVVTVPSSSLGTQTYICNVNHKPSNTKVDKKVEPKSCDKTHTCPPCPAPELRRGPSVFLFPPKPKDTLMISRTPEVTCVVVDVSHEDPEVKFNWYVDGVEVHNAKTKPREEQYNSTYRVVSVLTVLHQDWLNGKEYKCKVSNKGLPSSIEKTISKAKGQPREPQVYTLPPSREEMTKNQVSLTCLVKGFYPSDIAVEWESNGQPENNYKTTPPVLDSDGSFFLYSKLTVDKSRWQQGNVFSCSVLHEALHAHTTRKELSLSP
light: DIQMTQSPSSLSASVGDRVTITCRASEIIYSYLAWYQQKPGKAPKLLIYKAKTHADGVPSRFSGSGSGTDFTFTISSLQPEDIATYYCKHHFGFPRTFGQGTKVEIKRTVAAPSVFIFPPSDEQLKSGTASVVCLLNNFYPREAKVQWKVDNALQSGNSQESVTEQDSKDSTYSLSSTLTLSKADYEKHKVYACEVTHQGLSSPVTKSFNRGEC
adhesion at incision site: Abdominal wall, Median line: ∘ | adhesion at incision site: Abdominal wall, Peritoneum (L): ∘ and x | adhesion at incision site: Abdominal wall, Peritoneum (R): ∘ and x | adhesion at incision site: Uterus: ∘ and x
